Data: publication PMC12338573 (bioRxiv, 2025)

Biological target: the molecule itself
Test: SEC-MALS

B1: hFcµ-tFcµ-chi3 with Cys414 mutated (domain or fragment)
chain: TAIRVFAIPPSFASIFLTKSTKLTCLVTDLTTYDSVTISWTRQNGEAVKTHTNISESHPNATFSAVGEASIAEDDWNSGERFTCTVTHTDLPSPLKQTISRPKGVALHRPDVYLLPPAREQLNLRESATITCLVTGFSPADVFVQWMQRGQPLSPEKYVTSAPMPEPQAPGRYFAHSILTVSEEEWNTGETYTCVVAHEALPNRVTERTVDRTSNQPNLVNLSLNVPQRCMAQ
- pentamer:monomer ratio: 14%
